In paper PMC4346919:

Key:
Experiment in all cases: far-Western, overlay or dot blot; purified GST-fused peptides resolved by SDS-PAGE, transferred to PVDF membranes and probed with biotin-labeled ALG-2; chemiluminescence, quantified with ImageJ
[1] = target: GST-8 aa-fusion of SET1B
[2] = target: GST-8 aa-fusion of CHERP
[3] = target: GST-8 aa-fusion of RBM22
[4] = target: substitution of Pro with Ala at position 2, 4 or 5 (P2A, P4A or P5A) or substitution of Pro5 with Leu (P5L)

Chain of biotin-labeled ALG-2 (O75340 whole entry): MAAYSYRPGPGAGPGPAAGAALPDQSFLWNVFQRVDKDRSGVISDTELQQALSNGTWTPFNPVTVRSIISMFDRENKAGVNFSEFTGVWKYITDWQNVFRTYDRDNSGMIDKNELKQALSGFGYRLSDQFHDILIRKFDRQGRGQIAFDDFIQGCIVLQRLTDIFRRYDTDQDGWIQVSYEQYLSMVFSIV

biotin-labeled ALG-2 (from UniProt O75340 1-191) (natural protein)
FW signal relative to that for Sec31A (of the signal for Sec31A) [1]: < 0.0625 | FW signal relative to that for Sec31A (of the signal for Sec31A) [2]: < 0.0625 | FW signal relative to that for Sec31A (of the signal for Sec31A) [3]: < 0.0625 | relative binding activity (percent of WT) [4]: 40 to 75 % of WT
